[ ]: non-standard residue; d: D form. pY = N[C@@H](Cc1ccc(OP(=O)(O)O)cc1)C(=O)O
Assays:
[1] = molecular target: T1, RasGAP SH2-SH3-SH2 construct (residues 174 to 444), R427Q (human, UniProt P20936 174-444, C236S | C261S | C372S | C402S | R427Q); assay: ITC; about 25 μM peptide in the syringe titrated into about 5 μM RasGAP SH2-SH3-SH2 in the cell; 25 °C; 250 mM NaCl, 20 mM Tris pH 8, 1 mM TCEP; Independent model; settings: both partners purified
T1 construct: human RasGAP (p120RasGAP, RASA1), UniProt P20936, residues 174-444, with C236S, C261S, C372S, C402S and the cancer-associated C-SH2 mutation R427Q; also called p120RasGAP SH2-SH3-SH2 R427Q; source: E. coli Rosetta (DE3), purified (Ni-NTA, TEV cleavage, anion exchange, SEC); not shown: His6, N-terminal, cleaved
T1 sequence (looked up): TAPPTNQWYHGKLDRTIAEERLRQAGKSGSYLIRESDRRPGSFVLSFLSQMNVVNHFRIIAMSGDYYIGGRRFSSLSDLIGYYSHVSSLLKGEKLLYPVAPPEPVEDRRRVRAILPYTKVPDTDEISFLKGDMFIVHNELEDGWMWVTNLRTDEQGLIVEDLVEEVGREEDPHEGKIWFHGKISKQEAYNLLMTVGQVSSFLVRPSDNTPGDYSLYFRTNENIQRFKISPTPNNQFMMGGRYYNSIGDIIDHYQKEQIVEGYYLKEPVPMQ

[2] = molecular target: T2, RasGAP SH2-SH3-SH2 construct (residues 174 to 444), WT (human, UniProt P20936 174-444, C236S | C261S | C372S | C402S); assay: as above; settings: both partners purified
T2 construct: also called p120RasGAP SH2-SH3-SH2; RASA1; source: E. coli Rosetta (DE3), purified (Ni-NTA, TEV cleavage, anion exchange, SEC); not shown: His6, N-terminal, cleaved
T2 sequence (looked up): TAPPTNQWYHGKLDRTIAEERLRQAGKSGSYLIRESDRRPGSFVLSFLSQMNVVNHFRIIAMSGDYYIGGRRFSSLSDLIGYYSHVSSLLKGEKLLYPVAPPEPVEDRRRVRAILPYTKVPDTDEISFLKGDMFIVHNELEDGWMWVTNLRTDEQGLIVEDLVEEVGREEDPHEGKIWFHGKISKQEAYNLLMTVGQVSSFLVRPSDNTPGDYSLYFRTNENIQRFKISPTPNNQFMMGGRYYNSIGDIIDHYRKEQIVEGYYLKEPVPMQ

[3] = molecular target: T3, RasGAP SH2-SH3-SH2 construct (residues 174 to 444), R194C (human, UniProt P20936 174-444, R194C | C236S | C261S | C372S | C402S); assay: as above; settings: both partners purified
T3 construct: human RasGAP (p120RasGAP, RASA1), UniProt P20936, residues 174-444, with C236S, C261S, C372S, C402S and the cancer-associated N-SH2 mutation R194C; also called p120RasGAP SH2-SH3-SH2 R194C; source: E. coli Rosetta (DE3), purified (Ni-NTA, TEV cleavage, anion exchange, SEC); not shown: His6, N-terminal, cleaved
T3 sequence (looked up): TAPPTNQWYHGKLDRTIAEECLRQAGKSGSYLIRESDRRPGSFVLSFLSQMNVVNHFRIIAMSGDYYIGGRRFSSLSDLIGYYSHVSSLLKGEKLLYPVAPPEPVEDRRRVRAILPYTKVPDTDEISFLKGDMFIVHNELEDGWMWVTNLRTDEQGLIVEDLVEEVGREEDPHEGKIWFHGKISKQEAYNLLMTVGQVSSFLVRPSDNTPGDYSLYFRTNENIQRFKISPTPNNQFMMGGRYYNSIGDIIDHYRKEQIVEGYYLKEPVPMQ

[4] = molecular target: T4, RasGAP SH2-SH3-SH2 construct (residues 174 to 444), WT (human, UniProt P20936 174-444, C236S | C261S | C372S | C402S); assay: ITC; average
T4 sequence: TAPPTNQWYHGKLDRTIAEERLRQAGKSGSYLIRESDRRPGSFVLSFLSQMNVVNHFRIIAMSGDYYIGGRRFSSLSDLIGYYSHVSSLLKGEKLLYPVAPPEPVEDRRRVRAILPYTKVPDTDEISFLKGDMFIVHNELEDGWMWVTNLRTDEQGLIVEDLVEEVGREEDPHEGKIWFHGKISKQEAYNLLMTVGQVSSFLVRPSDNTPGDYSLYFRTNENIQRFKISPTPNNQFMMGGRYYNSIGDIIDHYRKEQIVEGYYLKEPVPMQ

[5] = molecular target: T5, RasGAP SH2-SH3-SH2 construct (residues 174 to 444), R194C (human, UniProt P20936 174-444, R194C | C236S | C261S | C372S | C402S); assay: ITC; average
T5 sequence: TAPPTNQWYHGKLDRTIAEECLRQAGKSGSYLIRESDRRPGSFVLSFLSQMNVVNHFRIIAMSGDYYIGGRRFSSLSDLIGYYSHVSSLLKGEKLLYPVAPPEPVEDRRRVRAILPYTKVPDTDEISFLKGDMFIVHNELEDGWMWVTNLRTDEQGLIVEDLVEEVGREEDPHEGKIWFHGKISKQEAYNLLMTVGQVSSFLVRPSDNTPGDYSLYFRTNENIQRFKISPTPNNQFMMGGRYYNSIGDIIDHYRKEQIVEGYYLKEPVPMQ

[6] = molecular target: T6, RasGAP SH2-SH3-SH2 construct (residues 174 to 444), R427Q (human, UniProt P20936 174-444, C236S | C261S | C372S | C402S | R427Q); assay: ITC; average
T6 sequence: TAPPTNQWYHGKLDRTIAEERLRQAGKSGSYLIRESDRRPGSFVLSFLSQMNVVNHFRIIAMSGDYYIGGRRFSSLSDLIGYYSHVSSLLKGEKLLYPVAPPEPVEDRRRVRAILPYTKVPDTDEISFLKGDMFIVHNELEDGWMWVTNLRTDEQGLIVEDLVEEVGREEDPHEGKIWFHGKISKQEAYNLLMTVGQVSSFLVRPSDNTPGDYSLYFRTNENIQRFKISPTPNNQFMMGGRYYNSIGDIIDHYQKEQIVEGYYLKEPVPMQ

[7] = molecular target: T5, RasGAP SH2-SH3-SH2 construct (residues …); assay: ITC; replicate, Figure S7 panel E
[8] = molecular target: T5, RasGAP SH2-SH3-SH2 construct (residues …); assay: ITC; replicate, Figure S7 panel C
[9] = molecular target: T4, RasGAP SH2-SH3-SH2 construct (residues …); assay: ITC; replicate, Figure S7 panel A
[10] = molecular target: T6, RasGAP SH2-SH3-SH2 construct (residues …); assay: ITC; replicate, Figure S7 panel F
[11] = molecular target: T4, RasGAP SH2-SH3-SH2 construct (residues …); assay: ITC; replicate, Figure S7 panel B
[12] = molecular target: T6, RasGAP SH2-SH3-SH2 construct (residues …); assay: ITC; replicate, Figure S7 panel G
[13] = molecular target: T5, RasGAP SH2-SH3-SH2 construct (residues …); assay: ITC; replicate, Figure S7 panel D

B1: p190RhoGAP phosphopeptide, residues 1083 to 1111 (pY1087, pY1105) (peptide)
peptide: Ac-DPSD[pY]AEPMDAVVKPRNEEENI[pY]SVPHDS-NH2
notes: p190RhoGAP (ARHGAP35), UniProt Q9NRY4, residues 1083-1111, 29 amino acids; also called p190RhoGAP peptide; ARHGAP35 peptide; source: synthetic peptide, bought: GenScript
- binding result [1]: binds
- binding result [2]: binds
- binding result [3]: binds
- Kd [4]: 5.04 nM
- Kd [5]: 4.03 nM
- Kd [6]: 5.11 nM
- Kd [7]: 1.2 nM
- Kd [8]: 3.65 nM
- Kd [9]: 6.49 nM
- Kd [10]: 8.14 nM
- Kd [11]: 3.59 nM
- Kd [12]: 2.08 nM
- Kd [13]: 7.23 nM
